Test results from IntAct's records for PubMed 35512704.

B1: Mothers against decapentaplegic homolog 4 (Homo sapiens), Q13485 (parent)
chain: MDNMSITNTPTSNDACLSIVHSLMCHRQGGESETFAKRAIESLVKKLKEKKDELDSLITAITTNGAHPSKCVTIQRTLDGRLQVAGRKGFPHVIYARLWRWPDLHKNELKHVKYCQYAFDLKCDSVCVNPYHYERVVSPGIDLSGLTLQSNAPSSMMVKDEYVHDFEGQPSLSTEGHSIQTIQHPPSNRASTETYSTPALLAPSESNATSTANFPNIPVASTSQPASILGGSHSEGLLQIASGPQPGQQQNGFTGQPATYHHNSTTTWTGSRTAPYTPNLPHHQNGHLQHHPPMPPHPGHYWPVHNELAFQPPISNHPAPEYWCSIAYFEMDVQVGETFKVPSSCPIVTVDGYVDPSGGDRFCLGQLSNVHRTEAIERARLHIGKGVQLECKGEGDVWVRCLSDHAVFVQSYYLDREAGRAPGDAVHKIYPSAYIKVFDLRQCHRQMQQQAATAQAAAAAQAAAVAGNIPGPGSVGGIAPAISLSAAAGIGVDDLRRLCILRMSFVKGWGPDYPRQSIKETPCWIEIHLHRALQLLDEVLHTMPIADPQPLD
partner: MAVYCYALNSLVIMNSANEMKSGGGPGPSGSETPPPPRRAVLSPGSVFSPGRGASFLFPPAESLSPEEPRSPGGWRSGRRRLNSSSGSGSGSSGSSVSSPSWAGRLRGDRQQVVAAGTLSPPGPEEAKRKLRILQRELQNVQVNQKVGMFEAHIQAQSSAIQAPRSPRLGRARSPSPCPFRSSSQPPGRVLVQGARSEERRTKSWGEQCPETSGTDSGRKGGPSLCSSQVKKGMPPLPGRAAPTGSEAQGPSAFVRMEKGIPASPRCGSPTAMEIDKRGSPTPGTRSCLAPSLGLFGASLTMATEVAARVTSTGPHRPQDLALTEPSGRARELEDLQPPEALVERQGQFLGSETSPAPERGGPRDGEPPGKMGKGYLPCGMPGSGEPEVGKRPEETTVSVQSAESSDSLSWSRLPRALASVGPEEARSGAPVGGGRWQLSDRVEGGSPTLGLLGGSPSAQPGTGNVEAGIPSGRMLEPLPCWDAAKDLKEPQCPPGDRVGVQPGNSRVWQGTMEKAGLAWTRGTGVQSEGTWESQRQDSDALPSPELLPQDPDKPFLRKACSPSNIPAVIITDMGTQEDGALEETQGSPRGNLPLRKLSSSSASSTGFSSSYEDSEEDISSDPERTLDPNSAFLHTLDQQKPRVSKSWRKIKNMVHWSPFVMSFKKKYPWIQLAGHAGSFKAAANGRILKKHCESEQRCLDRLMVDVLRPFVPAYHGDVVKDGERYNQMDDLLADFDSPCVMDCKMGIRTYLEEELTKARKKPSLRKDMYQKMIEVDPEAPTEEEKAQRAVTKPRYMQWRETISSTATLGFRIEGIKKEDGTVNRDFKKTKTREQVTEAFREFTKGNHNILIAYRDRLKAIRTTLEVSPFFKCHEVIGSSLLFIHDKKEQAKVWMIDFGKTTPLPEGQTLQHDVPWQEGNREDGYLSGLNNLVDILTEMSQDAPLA
B2: Mothers against decapentaplegic homolog 4 (Homo sapiens), Q13485 (parent)
chain: B1 chain
partner: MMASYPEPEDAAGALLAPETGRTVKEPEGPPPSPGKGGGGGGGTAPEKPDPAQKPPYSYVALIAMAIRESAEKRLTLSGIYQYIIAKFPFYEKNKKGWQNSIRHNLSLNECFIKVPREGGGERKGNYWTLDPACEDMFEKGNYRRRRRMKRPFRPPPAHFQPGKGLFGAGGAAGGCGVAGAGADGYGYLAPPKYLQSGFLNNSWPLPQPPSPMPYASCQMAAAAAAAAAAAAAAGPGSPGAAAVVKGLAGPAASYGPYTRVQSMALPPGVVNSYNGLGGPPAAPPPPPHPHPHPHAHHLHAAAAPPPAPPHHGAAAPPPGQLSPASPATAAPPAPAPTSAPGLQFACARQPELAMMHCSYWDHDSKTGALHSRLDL
B3: Mothers against decapentaplegic homolog 4 (Homo sapiens), Q13485 (parent)
chain: B1 chain
partner: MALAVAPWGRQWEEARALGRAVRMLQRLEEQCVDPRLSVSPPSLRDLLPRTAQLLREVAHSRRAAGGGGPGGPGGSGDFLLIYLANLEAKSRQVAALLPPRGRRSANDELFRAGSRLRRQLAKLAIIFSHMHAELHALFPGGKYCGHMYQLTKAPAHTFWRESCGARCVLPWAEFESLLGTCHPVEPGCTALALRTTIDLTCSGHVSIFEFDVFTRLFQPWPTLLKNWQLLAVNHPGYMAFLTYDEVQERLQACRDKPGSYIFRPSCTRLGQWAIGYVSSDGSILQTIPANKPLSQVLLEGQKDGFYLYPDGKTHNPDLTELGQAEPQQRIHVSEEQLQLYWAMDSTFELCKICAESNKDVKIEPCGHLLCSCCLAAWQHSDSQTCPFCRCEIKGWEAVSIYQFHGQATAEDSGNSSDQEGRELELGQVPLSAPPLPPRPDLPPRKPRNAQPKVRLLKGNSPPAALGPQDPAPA
B4: Mothers against decapentaplegic homolog 4 (Homo sapiens), Q13485 (parent)
chain: B1 chain
partner: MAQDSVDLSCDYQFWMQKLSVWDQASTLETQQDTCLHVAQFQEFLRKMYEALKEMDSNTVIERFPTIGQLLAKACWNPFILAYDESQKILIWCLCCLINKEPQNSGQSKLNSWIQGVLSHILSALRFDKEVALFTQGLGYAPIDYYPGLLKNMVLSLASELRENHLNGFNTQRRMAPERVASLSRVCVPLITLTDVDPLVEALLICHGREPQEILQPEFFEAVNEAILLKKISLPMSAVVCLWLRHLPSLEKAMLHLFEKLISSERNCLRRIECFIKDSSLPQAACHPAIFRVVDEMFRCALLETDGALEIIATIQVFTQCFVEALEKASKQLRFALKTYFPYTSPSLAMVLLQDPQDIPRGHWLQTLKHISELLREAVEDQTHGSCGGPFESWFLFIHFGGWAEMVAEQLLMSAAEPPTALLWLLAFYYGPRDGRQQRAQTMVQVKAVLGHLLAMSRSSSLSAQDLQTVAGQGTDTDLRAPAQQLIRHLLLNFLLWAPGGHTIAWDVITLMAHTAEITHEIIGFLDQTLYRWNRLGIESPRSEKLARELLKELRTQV
B5: Mothers against decapentaplegic homolog 4 (Homo sapiens), Q13485 (parent)
chain: B1 chain
partner: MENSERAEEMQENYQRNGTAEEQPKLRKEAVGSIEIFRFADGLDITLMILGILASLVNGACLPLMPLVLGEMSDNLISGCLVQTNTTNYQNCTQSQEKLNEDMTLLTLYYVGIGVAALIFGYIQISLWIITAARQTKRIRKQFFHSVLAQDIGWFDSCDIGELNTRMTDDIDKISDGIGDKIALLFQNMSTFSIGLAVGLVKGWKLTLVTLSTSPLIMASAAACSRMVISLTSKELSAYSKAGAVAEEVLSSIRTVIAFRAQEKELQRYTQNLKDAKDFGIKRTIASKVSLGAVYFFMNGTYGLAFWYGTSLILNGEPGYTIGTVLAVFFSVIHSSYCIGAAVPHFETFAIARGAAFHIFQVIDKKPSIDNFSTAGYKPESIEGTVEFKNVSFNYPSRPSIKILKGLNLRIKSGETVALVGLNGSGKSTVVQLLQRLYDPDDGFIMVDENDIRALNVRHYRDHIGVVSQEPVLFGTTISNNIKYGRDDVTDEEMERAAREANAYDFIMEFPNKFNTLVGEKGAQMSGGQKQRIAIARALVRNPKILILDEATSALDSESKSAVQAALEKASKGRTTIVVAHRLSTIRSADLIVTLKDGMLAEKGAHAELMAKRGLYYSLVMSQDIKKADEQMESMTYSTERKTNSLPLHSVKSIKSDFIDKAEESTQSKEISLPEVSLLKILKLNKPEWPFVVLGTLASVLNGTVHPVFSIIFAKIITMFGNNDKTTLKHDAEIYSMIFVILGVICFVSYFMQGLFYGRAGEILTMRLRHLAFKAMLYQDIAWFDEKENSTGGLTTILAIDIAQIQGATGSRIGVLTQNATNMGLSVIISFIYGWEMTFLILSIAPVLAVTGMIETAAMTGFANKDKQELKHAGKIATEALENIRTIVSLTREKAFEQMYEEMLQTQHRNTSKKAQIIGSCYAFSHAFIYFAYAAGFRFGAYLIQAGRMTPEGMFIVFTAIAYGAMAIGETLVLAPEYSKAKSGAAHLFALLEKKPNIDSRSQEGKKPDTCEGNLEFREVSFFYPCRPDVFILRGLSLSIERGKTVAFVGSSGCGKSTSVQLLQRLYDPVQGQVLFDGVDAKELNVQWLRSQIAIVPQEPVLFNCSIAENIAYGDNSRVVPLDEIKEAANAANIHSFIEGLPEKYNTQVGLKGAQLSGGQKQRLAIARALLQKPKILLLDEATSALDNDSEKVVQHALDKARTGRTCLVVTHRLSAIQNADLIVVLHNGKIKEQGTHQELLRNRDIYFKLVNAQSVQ
B6: Mothers against decapentaplegic homolog 4 (Homo sapiens), Q13485 (parent)
chain: B1 chain
partner: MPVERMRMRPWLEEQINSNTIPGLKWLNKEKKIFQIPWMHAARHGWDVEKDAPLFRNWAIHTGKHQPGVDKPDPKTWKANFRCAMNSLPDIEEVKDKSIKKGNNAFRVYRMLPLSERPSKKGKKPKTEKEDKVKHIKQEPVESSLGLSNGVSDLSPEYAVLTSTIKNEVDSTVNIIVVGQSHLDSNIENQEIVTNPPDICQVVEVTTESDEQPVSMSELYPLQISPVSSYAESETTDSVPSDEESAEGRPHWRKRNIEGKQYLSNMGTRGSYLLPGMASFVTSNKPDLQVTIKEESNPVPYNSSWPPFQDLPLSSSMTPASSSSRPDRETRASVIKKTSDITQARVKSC
B7: Mothers against decapentaplegic homolog 4 (Homo sapiens), Q13485 (parent)
chain: B1 chain
partner: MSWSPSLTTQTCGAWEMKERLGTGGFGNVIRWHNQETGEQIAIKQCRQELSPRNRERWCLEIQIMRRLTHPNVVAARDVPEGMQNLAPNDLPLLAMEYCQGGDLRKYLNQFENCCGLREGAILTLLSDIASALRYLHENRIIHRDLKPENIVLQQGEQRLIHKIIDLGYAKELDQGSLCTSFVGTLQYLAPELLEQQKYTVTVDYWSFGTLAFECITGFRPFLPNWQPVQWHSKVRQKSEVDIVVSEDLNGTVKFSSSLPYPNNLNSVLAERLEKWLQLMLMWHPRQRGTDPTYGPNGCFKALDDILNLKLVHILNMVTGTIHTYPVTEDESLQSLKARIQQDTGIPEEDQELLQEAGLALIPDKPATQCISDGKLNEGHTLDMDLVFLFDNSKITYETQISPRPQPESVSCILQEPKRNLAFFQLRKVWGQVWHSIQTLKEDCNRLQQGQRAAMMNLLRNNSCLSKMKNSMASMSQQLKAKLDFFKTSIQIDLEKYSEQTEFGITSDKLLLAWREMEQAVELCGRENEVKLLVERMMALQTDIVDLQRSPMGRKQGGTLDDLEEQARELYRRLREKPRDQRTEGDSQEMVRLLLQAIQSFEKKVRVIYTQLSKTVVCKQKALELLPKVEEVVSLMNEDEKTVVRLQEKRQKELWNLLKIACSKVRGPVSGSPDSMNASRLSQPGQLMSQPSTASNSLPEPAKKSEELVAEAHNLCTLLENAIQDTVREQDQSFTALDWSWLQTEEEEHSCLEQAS

Variants of: B1
Details: with ip3kb_human ITPKB

effect of a mutation on the interaction | Variant
with no effect | R361H

Variants of: B1
Details: with ip3kb_human ITPKB
Remark: another data set of the same source

effect of a mutation on the interaction | Variant
with no effect | G386D

Variants of: B2
Details: with foxl2_human FOXL2, P58012

effect of a mutation on the interaction | Variant
with no effect | G386D

Variants of: B2
Details: with foxl2_human FOXL2, P58012
Remark: another data set of the same source

effect of a mutation on the interaction | Variant
with no effect | R361C

Variants of: B2
Details: with foxl2_human FOXL2, P58012
Remark: another data set of the same source

effect of a mutation on the interaction | Variant
with no effect | R361H

Variants of: B2
Details: with foxl2_human FOXL2, P58012
Remark: another data set of the same source

effect of a mutation on the interaction | Variant
with no effect | D351H

Variants of: B3
Details: with cblc_human CBLC

effect of a mutation on the interaction | Variant
with no effect | R361H

Variants of: B3
Details: with cblc_human CBLC
Remark: another data set of the same source

effect of a mutation on the interaction | Variant
with no effect | R361C

Variants of: B3
Details: with cblc_human CBLC
Remark: another data set of the same source

effect of a mutation on the interaction | Variant
with no effect | G386D

Variants of: B3
Details: with cblc_human CBLC
Remark: another data set of the same source

effect of a mutation on the interaction | Variant
with no effect | D351H

Variants of: B4
Details: with fancc_human FANCC

effect of a mutation on the interaction | Variant
with no effect | D351H

Variants of: B4
Details: with fancc_human FANCC
Remark: another data set of the same source

effect of a mutation on the interaction | Variant
with no effect | R361H

Variants of: B4
Details: with fancc_human FANCC
Remark: another data set of the same source

effect of a mutation on the interaction | Variant
with no effect | R361C

Variants of: B4
Details: with fancc_human FANCC
Remark: another data set of the same source

effect of a mutation on the interaction | Variant
with no effect | G386D

Variants of: B5
Details: with abcb5_human ABCB5, Q2M3G0

effect of a mutation on the interaction | Variant
with no effect | R361H

Variants of: B5
Details: with abcb5_human ABCB5, Q2M3G0
Remark: another data set of the same source

effect of a mutation on the interaction | Variant
with no effect | R361C

Variants of: B5
Details: with abcb5_human ABCB5, Q2M3G0
Remark: another data set of the same source

effect of a mutation on the interaction | Variant
with no effect | D351H

Variants of: B5
Details: with abcb5_human ABCB5, Q2M3G0
Remark: another data set of the same source

effect of a mutation on the interaction | Variant
with no effect | G386D

Variants of: B6
Details: with irf2_human IRF2, P14316

effect of a mutation on the interaction | Variant
with no effect | R361C

Variants of: B6
Details: with irf2_human IRF2, P14316
Remark: another data set of the same source

effect of a mutation on the interaction | Variant
with no effect | D351H

Variants of: B6
Details: with irf2_human IRF2, P14316
Remark: another data set of the same source

effect of a mutation on the interaction | Variant
with no effect | G386D

Variants of: B7
Details: with ikkb_human IKBKB

effect of a mutation on the interaction | Variant
with no effect | D351H

Variants of: B7
Details: with ikkb_human IKBKB
Remark: another data set of the same source

effect of a mutation on the interaction | Variant
with no effect | G386D

Variants of: B7
Details: with ikkb_human IKBKB
Remark: another data set of the same source

effect of a mutation on the interaction | Variant
with no effect | R361H
